The text below walks through data of article PMC7327177.

The target in assay [1] is Heme A synthase from Aquifex aeolicus (Aquifex aeolicus strain VF5) (UniProt O66543). The assay is described as follows: SDS-PAGE + MALDI-TOF MS; purified AaHAS on 4 to 12% bis-Tris NuPAGE; incubated with 10 mM DTT at room temperature or 70°C for 10 min; masses of the two bands by MALDI-TOF MS (data not shown).
Assay [2] shares this target. The assay is described as follows: native MS; LILBID-MS, AaHAS 2 mg/ml, in the presence of 150 mM NaCl, harsh laser mode, negative-ion mode.
For assay [3] the target is unchanged. The assay is described as follows: SEC-MALS; 150 μl AaHAS at ~2 mg/ml, Superdex 200 10/300 GL, 20 mM Tris-HCl pH 7.4, 150 mM NaCl, 0.15% DM, 4°C. On the technique in general: Size exclusion chromatography separates by hydrodynamic size, large species first.
The target is the same in assay [4]. Nature of the assay: cross-linking; 0.5/3.5 mM BS3 or 0.5 mM DSS, room temperature, 30 min, quenched with 50 mM Tris-HCl pH 7.5, then 90°C for 10 min and SDS-PAGE.
Assay [5] has the same target. Nature of the assay: cryo-EM structure; single-particle cryo-EM of purified AaHAS (2.5 mg/ml) in DM; map at 4.2 Å with C3 symmetry, 4.6 Å without applied symmetry.
For assay [6] the target is unchanged. Nature of the assay: native gel or EMSA; BN-PAGE, Novex 4 to 16% bis-Tris gel, purified AaHAS in DM; band at about 200 kDa, conversion factor 1.8 gives 110 kDa. Background: Mobility shift assays separate free from complexed probe on a gel.
Assay [7] has the same target. Nature of the assay: native MS; LILBID-MS, additionally desalted AaHAS (without NaCl; 20 mM Tris-HCl pH 7.4, 0.15% DM), harsh laser mode, negative-ion mode.

Values joined by “and” are separate entries in the source; they are usually repeats but may differ in a detail not shown here. Identical values can stand only once.

As usually defined, the stoichiometry N is a count of units in the complex or per binding partner. Take “Heme A synthase from Aquifex aeolicus (from UniProt O66543 2-296) (enzyme)”: the stoichiometry N is 3 in assay [1]; 3 in assay [2]; 3 in assay [3]; 2 and 3 in assay [4]; 3 in assay [5]; 3 in assay [6]. Moreover, in assay [7], the stoichiometry N was 2 and 3.
